Measurements: article PMC3287177

What was measured:
Assay in all cases: EMSA
Lin28 1-209 = biological target: T1, Lin28 1-209 (Mus musculus, UniProt Q8K3Y3 1-209)
T1 sequence: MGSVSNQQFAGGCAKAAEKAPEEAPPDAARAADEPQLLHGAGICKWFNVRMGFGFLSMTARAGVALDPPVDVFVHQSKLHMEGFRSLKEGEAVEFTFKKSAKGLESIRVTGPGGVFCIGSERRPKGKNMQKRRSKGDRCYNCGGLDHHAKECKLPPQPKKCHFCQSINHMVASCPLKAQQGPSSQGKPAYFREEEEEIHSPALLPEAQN

Lin28 39-112 (CSD) = biological target: T2, Lin28 39-112 (CSD) (Mus musculus, UniProt Q8K3Y3 39-112)
T2 sequence: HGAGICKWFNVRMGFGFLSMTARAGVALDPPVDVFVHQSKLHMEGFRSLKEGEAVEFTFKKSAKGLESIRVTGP

[1] = biological target: T3, Lin28 119-180 (NCp7-like domain) (Mus musculus, UniProt Q8K3Y3 119-180)
T3 sequence: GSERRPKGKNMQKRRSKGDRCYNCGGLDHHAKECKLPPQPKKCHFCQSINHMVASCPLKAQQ

B1: pre-let-7g (structured_RNA)
RNA: UGAGGUAGUAGUUUGUACAGUUUGAGGGUCUAUGAUACCACCCGGUACAGGAGAUAACUGUACAGGCCACUGCCUUGCC
B1 was tested, and the Kd (Lin28 1-209) was 150 ± 40 pM, the Kd (Lin28 39-112 (CSD)) was 41000 ± 10000 pM and the Kd [1] was 600 ± 100 pM.
